Results from article PMC8722602 (bioRxiv, 2021).

B1: Clone 2 (recombinant mAb, mouse variable regions on human IgG1) (antibody, V domains shown)
VH: EVQLQQSGPELVKPGASVKISCKASGYSFTGYSMNWMKQSPEKSLEWIGEINPSTGGTTDNQKFKAKATLTVDKSSSTAYMQLKSLTSEDSAVYYCARSRGDYWGQGTSVTVSS
VL: DIVLTQSPASLAVSLGQRATISCRASESVEYYGTSLMQWYQQKPGQPPKVLIYAASNVESGVPARFSGSGSGTDFSLNIHPVEEDDIAMYFCQQSRKVPWTFGGGTKLEIK
B2: Clone 6 (recombinant mAb, mouse variable regions on human IgG1) (antibody, V domains shown)
VH: QVQLQQSAAELARPGASVKMSCKASGYTFTSYTMHWVKQRPGQGLEWIGYINPTSGYTEYNQNFKDKTTLTADKSSSTAYMQLNSLTSEDSAVYYCAREGHRVGPAYWGQGTLVTVSA
VL: not shown

Biological target: SARS-CoV-2 RBD-his tag protein (SARS-CoV-2, ancestral (Wuhan-Hu-1/WA1), UniProt P0DTC2)
Experiment: ELISA

Binder | binding result
B1 | binds
B2 | binds
